The source of these data is US20240182544A1.

Several values for one entry are separate records, joined by “and”; a condition that tells them apart may be missing. Equal entries are not always repeated.

In the assay the target is Death Receptor 5 (UniProt O14763). Nature of the assay: cell-based or functional assay.

Take “Conatumumab Multabody (from UniProt P02792 91-175)”: the IC50 of cell killing (cell viability, CellTiter-Glo, 24 h), CAPAN-1 cells was 0.002 µg/mL and 0.00087 nM; the IC50 of cell killing (cell viability, CellTiter-Glo, 24 h), Colo 205 cells is 0.16 pM; the IC50 of cell killing (cell viability, CellTiter-Glo, 24 h), H2122 cells is 0.00015 µg/mL and 6.4e-05 nM; the IC50 of cell killing (cell viability, CellTiter-Glo, 24 h), H2228 cells was 0.031 µg/mL and 0.013 nM. The IC50 of cell killing (cell viability, CellTiter-Glo, 24 h), HT29 cells is 0.0024 µg/mL and 0.001 nM; the IC50 of cell killing (cell viability, CellTiter-Glo, 24 h), HTC15 cells is 0.00053 µg/mL and 0.00023 nM; the IC50 of cell killing (cell viability, CellTiter-Glo, 24 h), MDA-BD231 cells is 0.00071 µg/mL and 0.00031 nM; the IC50 of cell killing (cell viability, CellTiter-Glo, 24 h), SW948 cells was 0.16 pM.

Take “Tigatuzumab Multabody (from UniProt P02792 1-175; P02792 1-175)”: the Fold-change of killing IC50, MB vs parental IgG, mass basis, CAPAN-1 cells was over 5000 fold; the Fold-change of killing IC50, MB vs parental IgG, mass basis, Colo 205 cells is over 11800 fold; the Fold-change of killing IC50, MB vs parental IgG, mass basis, H2122 cells is 2940 fold; the Fold-change of killing IC50, MB vs parental IgG, mass basis, H2228 cells is over 651 fold. Moreover, the Fold-change of killing IC50, MB vs parental IgG, mass basis, HT29 cells was over 1190 fold; the Fold-change of killing IC50, MB vs parental IgG, mass basis, HTC15 cells is over 5000 fold; the Fold-change of killing IC50, MB vs parental IgG, mass basis, MDA-BD231 cells is over 8400 fold; the Fold-change of killing IC50, MB vs parental IgG, mass basis, SW948 cells was over 27000 fold. Besides, the Fold-change of killing IC50, MB vs parental IgG, molar basis, CAPAN-1 cells was over 59300 fold; the Fold-change of killing IC50, MB vs parental IgG, molar basis, Colo 205 cells is over 181000 fold; the Fold-change of killing IC50, MB vs parental IgG, molar basis, H2122 cells is 45600 fold; the Fold-change of killing IC50, MB vs parental IgG, molar basis, H2228 cells is over 10000 fold. For the same substance, the Fold-change of killing IC50, MB vs parental IgG, molar basis, HT29 cells was over 18300 fold; the Fold-change of killing IC50, MB vs parental IgG, molar basis, HTC15 cells was over 77000 fold; the Fold-change of killing IC50, MB vs parental IgG, molar basis, MDA-BD231 cells was over 129000 fold; the Fold-change of killing IC50, MB vs parental IgG, molar basis, SW948 cells was over 416000 fold. The IC50 of cell killing (cell viability, CellTiter-Glo, 24 h), CAPAN-1 cells was 0.0026 µg/mL and 0.0011 nM; the IC50 of cell killing (cell viability, CellTiter-Glo, 24 h), Colo 205 cells is 0.00085 µg/mL and 0.00037 nM; the IC50 of cell killing (cell viability, CellTiter-Glo, 24 h), H2122 cells was 0.00014 µg/mL and 5.9e-05 nM; the IC50 of cell killing (cell viability, CellTiter-Glo, 24 h), H2228 cells is 0.015 µg/mL and 0.0067 nM. In addition, the IC50 of cell killing (cell viability, CellTiter-Glo, 24 h), HT29 cells was 0.0084 µg/mL and 0.0037 nM; the IC50 of cell killing (cell viability, CellTiter-Glo, 24 h), HTC15 cells was 0.002 µg/mL and 0.00087 nM; the IC50 of cell killing (cell viability, CellTiter-Glo, 24 h), MDA-BD231 cells is 0.00052 nM and 0.0012 µg/mL; the IC50 of cell killing (cell viability, CellTiter-Glo, 24 h), SW948 cells was 0.00037 µg/mL and 0.00016 nM.
